Values of other authors in PMC6540754.
pKd: −log10 of the molar value.

Biological target: BfrB (Pseudomonas aeruginosa) (UniProt Q9HY79)
UniProt Q9HY79, sequence (Q9HY79 whole entry): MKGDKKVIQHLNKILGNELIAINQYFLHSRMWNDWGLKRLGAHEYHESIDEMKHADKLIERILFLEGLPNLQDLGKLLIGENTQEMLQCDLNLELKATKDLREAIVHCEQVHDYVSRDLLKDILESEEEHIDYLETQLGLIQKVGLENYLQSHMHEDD

Bfd (from UniProt Q9HY80)
pKd: 5.47
